Results reported in publication PMC11831279.

Legend:
[1] = molecular target: PEDV spike ectodomain (S-ECD, amino acids 1 to 1325) fused with a T4 foldon at the C-terminus (porcine epidemic diarrhea virus (strain dndz) | bacteriophage T4 (printed as T4)); assay: SEC
[2] = molecular target: PEDV spike ectodomain (S-ECD, amino acids 1 to 1325) fused with a T4 foldon at the C-terminus (porcine epidemic diarrhea virus (strain dndz) | bacteriophage T4 (printed as T4)); assay: transmission electron microscopy; TEM of the purified S protein

For “PEDV spike ectodomain (S-ECD, amino acids 1 to 1325) fused with a T4 foldon at the C-terminus (domain or fragment)”, the stoichiometry N [1] was 3 and the stoichiometry N [2] was 3.
